Laboratory results taken from patent publication US20040175804A1, “Process for preparing dideoxyinosine using adenosine deaminase enzyme” (priority 2003, published 2004).

Columns and labels:
[1] = ADA activity assay (1 U = 1 μmol of ddA deaminated/min at 37° C.); assay type: biochemical; settings: 1 unit = 1 μmol of ddA deaminated/min at 37° C.; on IPS-400 support
Protocol: The enzyme so derived should be assayed for activity. As used herein, a unit (U) of enzymatic activity is that amount of enzyme which will deaminate 1 μmol of ddA per minute at 37° C. Desirably, the final enzyme titer is from about 650-750 U/ml. The assay may be performed by adding enzyme to a 2.4% solution of ddA at 37° C. The reaction is allowed to proceed for 15 min while gently stirring. Tetrahydrofuran is added to stop the reaction. A sample is taken and run on HPLC to determine the amount of ddI formed.
The immobilized enzyme assays show an enzymatic activity of ˜100 U/g. (1 unit=1 μmol of ddA deaminated/min at 37° C.).

[2] = Conversion of a 52-60 g/L solution of ddA in water to ddI by adenosine deaminase; assay type: biochemical; settings: for Conversion of ddA to ddI: 40 U/g ddA, 52-60 g/L ddA in water
Protocol: 100.0 g ddA is added to 1900 ml of water at 30° C. (mother liquor from previous runs can also be used). After the ddA has been added (complete dissolution is not necessary), 4000 U of immobilized rec human adenosine deaminase is added. […] The reaction is complete (approximately 5-8 hours) when the level of residual ddA is less than or equal to 1% of the original amount of ddA added. The enzyme solids are removed by filtration (20-30 μm media) and the enzyme cake is washed with 100 ml water. The used enzyme is held as a wet cake at 0-5° C. (for up to 72 hours) and can be recycled to another batch.
Microbial ADA from recombinant E. coli was partially purified and isolated as an ammonium sulfate suspension. E. coli fermentation broth (42 U ADA/mL, 2 L) was centrifuged and the cell pellet was collected and washed with 1 L 100 mM phosphate buffer pH 7.5. The cells were again centrifuged and resuspended in 2 L of the above buffer plus 20% glycerol. The cells were passed once through a microfluidizer. Cell debris was removed by centrifugation and the resulting supernatant was concentrated by ultrafiltration through a 30,000 MWCO cassette. The enzyme was concentrated to a final titer of 390 U/ml. Ammonium sulfate was added to a 50% saturation, the resulting precipitate was collected by centrifugation and re-suspended in 100 ml deionized water. The final titer of the slurry was 740 U/ml; the protein content of the slurry was ˜75 mg/ml.

B1: Recombinant human immobilized ADA: Human adenosine deaminase (SEQ ID NO: 1) expressed in E. coli, immobilized on glutaraldehyde-activated IPS-400 support (protein, listed as Homo sapiens)
chain: MAQTPAFDKPKVELHVHLDGSIKPETILYYGRRRGIALPANTAEGLLNVIGMDKPLTLPDFLAKFDYYMPAIAGCREAIKRIAYEFVEMKAKEGVVYVEVRYSPHLLANSKVEPIPWNQAEGDLTPDEVVALVGQGLQEGERDFGVKARSILCCMRHQPNWSPKVVELCKKYQQQTVVAIDLAGDETIPGSSLLPGHVQAYQEAVKSGIHRTVHAGEVGSAEVVKEAVDILKTERLGHGYHTLEDQALYNRLRQENMHFEICPWSSYLTGAWKPDTEHAVIRLKNDQANYSLNTDDPLIFKSTLDTDYQMTKRDMGFTEEEFKRLNINAAKSSFLPEDEKRELLDLLYKAYGMPPSASAGQNL
modifications: immobilized on glutaraldehyde-activated IPS-400 support; (1)..(363) gi 14043373
[1]
  Enzymatic activity of immobilized enzyme: ~100 U/g
[2]; 30 °C, 4.5 hours
  Conversion of ddA to ddI: 100%
[2]; 40 °C, 1.5 hours
  Conversion of ddA to ddI: 100%
[2]; compared with microbial enzymes
  Stability of the enzyme in the ddA to ddI reaction: significantly more stable than microbial enzymes
